Experimental data: US20250032630A1, “B7H4 ANTIBODY-DRUG CONJUGATE AND USE THEREOF” (Duality Biologics (Suzhou) Co., Ltd., priority 2022, published 2025)

How the values were obtained:
human B7H4 [1] = target: T1, human B7H4 (human, UniProt Q7Z7D3 25-282); assay: flow cytometry on human B7H4-transfected HEK293T cells, PE anti-human IgG Fc secondary antibody
T1 construct: whole, on cells; also called Human B7H4-293T; B7S1
T1 sequence (looked up): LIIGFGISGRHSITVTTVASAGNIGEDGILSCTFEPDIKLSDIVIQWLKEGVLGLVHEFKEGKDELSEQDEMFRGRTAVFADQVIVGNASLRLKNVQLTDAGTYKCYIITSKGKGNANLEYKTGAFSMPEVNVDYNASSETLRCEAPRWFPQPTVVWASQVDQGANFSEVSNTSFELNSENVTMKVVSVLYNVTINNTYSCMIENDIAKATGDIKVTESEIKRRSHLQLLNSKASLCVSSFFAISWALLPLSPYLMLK

human CD80 (B7-1) = target: T2, human CD80 (B7-1) (human, UniProt P33681 35-288); assay: flow cytometry on HEK293T cells stably expressing the human protein, one concentration
T2 construct: whole, on cells
T2 sequence (looked up): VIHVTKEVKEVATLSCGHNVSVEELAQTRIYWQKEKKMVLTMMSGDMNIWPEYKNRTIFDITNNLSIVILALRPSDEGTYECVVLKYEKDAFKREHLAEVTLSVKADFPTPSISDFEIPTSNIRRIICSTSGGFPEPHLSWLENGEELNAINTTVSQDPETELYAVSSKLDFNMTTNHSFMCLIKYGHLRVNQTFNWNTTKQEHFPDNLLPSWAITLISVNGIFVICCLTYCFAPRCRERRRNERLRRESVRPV

human PD-L1 (B7-H1) = target: T3, human PD-L1 (B7-H1) (human, UniProt Q9NZQ7 19-290); assay: as above
T3 construct: whole, on cells; also called CD274

human ICOSLG (B7-H2) = target: T4, human ICOSLG (B7-H2) (human, UniProt O75144 19-302); assay: as above
T4 construct: whole, on cells
T4 sequence (looked up): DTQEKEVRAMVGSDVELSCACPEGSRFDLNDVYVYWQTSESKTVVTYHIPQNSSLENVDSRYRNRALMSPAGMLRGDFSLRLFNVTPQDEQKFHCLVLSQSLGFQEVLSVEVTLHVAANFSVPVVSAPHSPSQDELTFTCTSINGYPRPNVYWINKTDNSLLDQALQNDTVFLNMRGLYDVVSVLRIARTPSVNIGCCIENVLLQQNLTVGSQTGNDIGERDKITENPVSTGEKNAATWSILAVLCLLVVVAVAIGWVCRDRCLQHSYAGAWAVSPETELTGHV

human PD-L2 (B7-DC) = target: T5, human PD-L2 (B7-DC) (human, UniProt Q9BQ51 20-273); assay: as above
T5 construct: whole, on cells; also called CD273
T5 sequence (looked up): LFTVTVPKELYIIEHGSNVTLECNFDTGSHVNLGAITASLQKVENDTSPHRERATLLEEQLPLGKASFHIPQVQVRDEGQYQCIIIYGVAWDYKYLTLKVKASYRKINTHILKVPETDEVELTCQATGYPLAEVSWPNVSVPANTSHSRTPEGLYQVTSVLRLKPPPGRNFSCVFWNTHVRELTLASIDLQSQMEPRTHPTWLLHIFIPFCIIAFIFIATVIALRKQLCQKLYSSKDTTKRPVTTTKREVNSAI

human B7H4 [2] = target: T1, human B7H4; assay: cell-based or functional assay

T3 sequence (Q9NZQ7 19-290): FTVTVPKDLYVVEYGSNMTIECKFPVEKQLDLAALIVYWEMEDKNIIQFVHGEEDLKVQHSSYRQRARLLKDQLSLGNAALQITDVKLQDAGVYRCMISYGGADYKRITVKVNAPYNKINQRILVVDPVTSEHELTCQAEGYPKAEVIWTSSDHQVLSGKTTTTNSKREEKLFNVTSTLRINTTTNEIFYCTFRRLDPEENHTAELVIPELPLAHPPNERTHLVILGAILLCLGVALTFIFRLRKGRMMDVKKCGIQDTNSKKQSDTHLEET

B1: antibody-drug conjugate DB1001-X2 (antibody, DAR 5.4, V domains shown)
VH: QVQLVESGGGVVQPGRSLRLSCAASGFTFRSFGMHWVRQAPGKGLEWVAVISYDASNEYYADSVKGRFIISRDNSKDTLYLQMNSLRAGDTAVYYCAKGGALRWYFAYWGQGTLVTVSS
VL: EIVMTQSPATLSVSPGERATLSCRASQSISSNLGWYQQKPGQAPRLLIYGASTRATGIPARFSGSGSGTEFTLTISSLQSEDFAVYYCQQYRSWPPLTFGGGTKVEIKR
modifications: linker-cytotoxin X2 (payload P-III-30) coupled after TCEP reduction of the antibody; drug-to-antibody ratio (DAR) of 5.4; conjugation residues not stated
notes: also called anti-B7H4 ADC DB1001-X2
EC50 (human B7H4 [1]): 2.18 nM | binding result (human CD80 (B7-1)): no binding (tested: 100 nM or 300 nM) | binding result (human PD-L1 (B7-H1)): no binding (tested: 100 nM or 300 nM) | binding result (human ICOSLG (B7-H2)): no binding (tested: 100 nM or 300 nM) | binding result (human PD-L2 (B7-DC)): no binding (tested: 100 nM or 300 nM) | IC50 (nM), in vitro proliferation inhibition of MDA-MB-468 cells (CTG, 7 days) (human B7H4 [2]): 50.7 nM
